In article PMC5829831, “Structural Basis for DNA Recognition by the Two-Component Response Regulator RcsB” (mBio, 2018):

Tests used:
[1] = biological target: the molecule itself; experiment: SEC-MALS; RcsB in the presence of the 22-bp DNA duplex DNA22, with and without CPh; RcsB and DNA 1 mg/ml; Superdex 75 10/300 GL; 10 mM Tris-HCl pH 8.3, 150 mM NaCl, 0.5 mM TCEP; 22°C
[2] = biological target: T1, RcsB (Escherichia coli str. K-12 substr. …, UniProt P0DMC7 1-216); experiment: X-ray crystallography; unphosphorylated, 3.37 A; tetramer on two DNAs; EMSA: 10 mM Tris pH 7.5, 40 mM KCl, 1 mM DTT, 10 mM MgCl2, 5% glycerol, 0.1 ug/ul BSA, room temp; SPR: 10 mM Tris-HCl pH 8.3, 150 mM NaCl, 0.5 mM TCEP, 25 C; settings: protein: recombinant; tags: N-terminal 6xHis (pCA24n, ASKA clone); chain copies: 2; blunt
T1 sequence: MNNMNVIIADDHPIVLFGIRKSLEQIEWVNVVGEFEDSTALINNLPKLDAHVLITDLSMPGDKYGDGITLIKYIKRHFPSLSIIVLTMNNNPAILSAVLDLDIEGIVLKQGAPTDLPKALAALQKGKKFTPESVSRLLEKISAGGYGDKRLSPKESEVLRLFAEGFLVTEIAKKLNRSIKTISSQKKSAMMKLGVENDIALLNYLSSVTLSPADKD

[3] = biological target: T1, RcsB; experiment: SPR; no CPh; EMSA: 10 mM Tris pH 7.5, 40 mM KCl, 1 mM DTT, 10 mM MgCl2, 5% glycerol, 0.1 ug/ul BSA, room temp; SPR: 10 mM Tris-HCl pH 8.3, 150 mM NaCl, 0.5 mM TCEP, 25 C; settings: protein: recombinant; tags: N-terminal 6xHis (pCA24n, ASKA clone); chain copies: 2; label: biotin (SPR); blunt

B1: RcsB, two-component response regulator of the Rcs phosphorelay system (natural protein, E. coli, UniProt P0DMC7 1-216, looked up)
chain: MNNMNVIIADDHPIVLFGIRKSLEQIEWVNVVGEFEDSTALINNLPKLDAHVLITDLSMPGDKYGDGITLIKYIKRHFPSLSIIVLTMNNNPAILSAVLDLDIEGIVLKQGAPTDLPKALAALQKGKKFTPESVSRLLEKISAGGYGDKRLSPKESEVLRLFAEGFLVTEIAKKLNRSIKTISSQKKSAMMKLGVENDIALLNYLSSVTLSPADKD
notes: RcsB from Escherichia coli, full length, REC domain, linker and HTH domain; theoretical mass of the monomer 24 kDa; In some samples carbamoyl phosphate (CPh) and MgCl2 were added to phosphorylate D56; also called RcsB* (in the presence of phosphodonor); unphosphorylated RcsB; source: purified RcsB
B1 was tested, and the “stoichiometry N” value [1] was 2.

B2: DNA18 (flhDC RcsAB box) (dsDNA)
DNA 1: TTTAGGAAAAATCTTAGA
DNA 2: TCTAAGATTTTTCCTAAA
B2: binds [2].

B3: DNA22, biotinylated (dsDNA)
DNA 1: GATTTAGGAAAAATCTTAGATA
DNA 2: TATCTAAGATTTTTCCTAAATC
B3 was tested, and the Kd [3] was roughly 5.34 µM.
